Measurements reported in patent publication US20250281611A1 (BIOSCEPTRE AUST, published 2025).

T1: CD19 (UniProt P15391 20-556, limits assumed)
T1 construct: whole, on cells; also called CD19 on JeKo-1
T1 sequence (looked up): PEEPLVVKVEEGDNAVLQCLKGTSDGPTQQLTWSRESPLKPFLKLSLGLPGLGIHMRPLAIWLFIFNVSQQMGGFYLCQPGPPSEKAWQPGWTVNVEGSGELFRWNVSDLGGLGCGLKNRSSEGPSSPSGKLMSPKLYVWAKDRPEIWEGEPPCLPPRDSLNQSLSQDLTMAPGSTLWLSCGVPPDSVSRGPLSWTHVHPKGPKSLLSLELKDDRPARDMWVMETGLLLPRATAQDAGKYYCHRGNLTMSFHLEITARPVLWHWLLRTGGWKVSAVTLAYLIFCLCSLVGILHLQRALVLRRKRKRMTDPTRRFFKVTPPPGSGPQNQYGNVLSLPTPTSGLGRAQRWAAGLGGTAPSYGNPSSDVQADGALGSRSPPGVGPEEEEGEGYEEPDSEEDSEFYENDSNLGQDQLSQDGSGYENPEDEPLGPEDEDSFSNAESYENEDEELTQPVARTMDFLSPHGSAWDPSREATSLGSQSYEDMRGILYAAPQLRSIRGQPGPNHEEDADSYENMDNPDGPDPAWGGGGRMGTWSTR

B1: CD19 BRIDGE variant B26 (Fab, V domains shown)
VH: EVQLVESGGGLVKPGGSLKLSCAASGYTFTSYVMHWVRQAPGKGLEWIGYINPYNDGTKYNEKFQGRVTISSDKSISTAYMELSSLRSEDTAMYYCARGTYYYGTRVFDYWGQGTLVTVSS
VL: DIVMTQSPATLSLSPGERATLSCRSSKSLQNVNGNTYLYWFQQKPGQSPQLLIYRMSNLNSGVPDRFSGSGSGTEFTLTISSLEPEDFAVYYCMQHLEYPITFGAGTKLEIKR
B2: CD19 BRIDGE variant B28 (Fab)
heavy: EVQLVESGGGLVKPGGSLKLSCAASGYTFTSYVMHWVRQAPGKGLEWIGYINPYNDGTKYNEKFQGRVTISSDKSISTAYMELSSLRSEDTAMYYCARGTYYYGTRVFDYWGQGTLVTVSSASTKGPSVFPLAPSSKSTSGGTAALGCLVKDYFPEPVTVSWNSGALTSGVHTFPAVLQSSGLYSLSSVVTVPSSSLGTQTYICNVNHKPSNTKVDKKVEPKSCHHHHHH
light: DFPGHNYTTRNILPGLNITSTFHKTSGSGKEPKSSDKTHTGSDIVMTQSPATLSLSPGERATLSCRSSKSLQNVNGNTYLYWFQQKPGQSPQLLIYRMSNLNSGVPDRFSGSGSGTEFTLTISSLEPEDFAVYYCMQHLEYPITFGAGTKLEIKRTVAAPSVFIFPPSDEQLKSGTASVVCLLNNFYPREAKVQWKVDNALQSGNSQESVTEQDSKDSTYSLSSTLTLSKADYEKHKVYACEVTHQGLSSPVTKSFNRGEC
B3: CD19 BRIDGE variant B24 (Fab)
heavy: B2 heavy
light: DFPGHNYTTRNILPGLNITSTFHKTSGSGKGGGGSEPKSSDKTHTDIVMTQSPATLSLSPGERATLSCRSSKSLQNVNGNTYLYWFQQKPGQSPQLLIYRMSNLNSGVPDRFSGSGSGTEFTLTISSLEPEDFAVYYCMQHLEYPITFGAGTKLEIKRTVAAPSVFIFPPSDEQLKSGTASVVCLLNNFYPREAKVQWKVDNALQSGNSQESVTEQDSKDSTYSLSSTLTLSKADYEKHKVYACEVTHQGLSSPVTKSFNRGEC
B4: CD19 BRIDGE variant B27 (Fab)
heavy: B2 heavy
light: DFPGHNYTTRNILPGLNITSGGGGSEPKSSDKTHTGSDIVMTQSPATLSLSPGERATLSCRSSKSLQNVNGNTYLYWFQQKPGQSPQLLIYRMSNLNSGVPDRFSGSGSGTEFTLTISSLEPEDFAVYYCMQHLEYPITFGAGTKLEIKRTVAAPSVFIFPPSDEQLKSGTASVVCLLNNFYPREAKVQWKVDNALQSGNSQESVTEQDSKDSTYSLSSTLTLSKADYEKHKVYACEVTHQGLSSPVTKSFNRGEC

Legend:
CD19 [1] = biological target: T1, CD19; experiment: flow cytometry, JeKo-1 cells, bridge at saturating conc., anti-His-FITC detection
Description: (§1) JeKo-1 cells were incubated with different CD19 BRiDGE variants at saturating concentrations. […] The MFI intensity correlates with the number of secondary bound antibodies bound to the CD19 BRiDGE variants that are only detected if they are bound to the JeKo-1 cells. MFI: median fluorescence intensity. BLitz: Bio-Layer interferometry (BLI) technology using HIS-tag identification tips. […] The higher the MFIR, the stronger the binding.

nfP2X7 CAR 1 [2] = biological target: T2, nfP2X7 CAR 1; experiment: flow cytometry, anti-His-FITC, MFI on EGFR+ (CAR+) over EGFR- (CAR-) T cells
T2 construct: CAR-positive cells gated by the co-expressed EGFR marker; also called nfP2X7 targeted CAR; nfP2X7 CAR on EGFR+ T cells
In short: (§2)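 CAR T cells incubated with BRiDGE variants at saturating concentrations; bound BRiDGE detected with anti-His-FITC by flow cytometry. EGFR marks CAR expression. Value is median fluorescence intensity on EGFR+ (CAR+) cells divided by that on EGFR− (CAR−) cells.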

CD19 [3] = biological target: T1, CD19; experiment: flow cytometry, JeKo-1 cells, anti-His-FITC detection, MFI over no-bridge control
Description: as §1

nfP2X7 CAR 1 [4] = biological target: T2, nfP2X7 CAR 1; experiment: flow cytometry, nfP2X7 CAR 1 T cells (EGFR+ gate), anti-His-FITC detection
nfP2X7 CAR 1 [5] = biological target: T2, nfP2X7 CAR 1; experiment: flow cytometry, anti-His-FITC, MFI on EGFR+ (CAR+) T cells over background 0.44
In short: as §2

CD19 [6] = biological target: T1, CD19; experiment: flow cytometry, JeKo-1 cells, bridge at saturating conc., BIL03s-AF647 detection
Description: as §1

CD19 [7] = biological target: T1, CD19; experiment: flow cytometry, JeKo-1 cells, BIL03s-AF647 detection, MFI over no-bridge control
Description: as §1

Binder | MFI HisTag FITC (CD19 [1]) | HisTag MFI Ratio of EGFR+/EGFR- (nfP2X7 CAR 1 [2]) | MFIR HisTag FITC (CD19 [3]) | MFI HisTag FITC in EGFR+ Population (nfP2X7 CAR 1 [4]) | HisTag MFI Ratio (background 0.44) (nfP2X7 CAR 1 [5]) | MFI Bil03 AF647 (CD19 [6]) | MFIR BIL03 AF647 (CD19 [7])
B1 | 2.36 | 4.2 | 3.06 | 2.17 | 4.9 | 5.53 | 12
B2 | 2.38 | 4.2 | 3.09 | 2.24 | 5.1 | 8.78 | 19.1
B3 | 2.47 | 3.9 | 3.21 | 2.13 | 4.8 | 8.45 | 18.4
B4 | 2.5 | 4.1 | 3.25 | 2.35 | 5.3 | 9.6 | 20.9
